Assay [1] deals with human VSIG10 protein endogenously expressed on human cell lines (DAN-G, AsPc1/ASPC-1, DU-145, ZR-75) (human) (UniProt Q8N0Z9). The assay can be described thus: FACS on DAN-G cells after VSIG10 siRNA knock down; 10 ug/ml mAb vs mIgG1 kappa isotype.
For assay [2] the target is unchanged. The assay is described as follows: FACS titration (4 concentrations) on DU-145 human cell line endogenously expressing VSIG10, vs mIgG1 kappa isotype; Kd from binding curve.
For assay [3] the target is unchanged. The assay can be described thus: FACS on AsPc1 cells after VSIG10 siRNA knock down; 10 ug/ml mAb vs mIgG1 kappa isotype.
The target in assay [4] is T1, human VSIG10 flag protein over-expressed in HEK293 cells (stable pool) (human).
T1 chain: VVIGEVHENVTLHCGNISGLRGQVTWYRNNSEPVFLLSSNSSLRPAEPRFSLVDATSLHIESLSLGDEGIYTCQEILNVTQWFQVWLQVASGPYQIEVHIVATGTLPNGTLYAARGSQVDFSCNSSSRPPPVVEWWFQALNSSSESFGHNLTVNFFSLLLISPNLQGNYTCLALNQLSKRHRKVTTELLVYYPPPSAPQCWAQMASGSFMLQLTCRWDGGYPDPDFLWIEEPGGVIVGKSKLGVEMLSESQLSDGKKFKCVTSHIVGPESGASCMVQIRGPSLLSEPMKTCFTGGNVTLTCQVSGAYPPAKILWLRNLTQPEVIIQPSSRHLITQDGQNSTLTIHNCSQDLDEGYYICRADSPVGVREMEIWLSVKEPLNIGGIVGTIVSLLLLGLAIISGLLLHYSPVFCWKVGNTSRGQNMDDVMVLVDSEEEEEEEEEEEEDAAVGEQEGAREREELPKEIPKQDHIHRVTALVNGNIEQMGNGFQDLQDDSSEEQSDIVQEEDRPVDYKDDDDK
The assay is described as follows: FACS on HEK293 cells over-expressing human VSIG10 Flag vs HEK293 empty vector cells; goat anti mouse PE detection. As for the experimental part:
The performance of the purified mAbs against human VSIG10, in FACS application were tested using HEK293 cells over-expressing human VSIG10 Flag. HEK293 cells transfected with an empty vector were used as a negative control.
Detection was carried out using Goat anti mouse PE secondary Ab.

Assay [5] concerns the target T1, human VSIG10 flag protein …. The assay is described as follows: FACS titration (4 concentrations) on HEK293 cells over-expressing human VSIG10 Flag; Kd from binding curve. As for the experimental part: (§1) The mAb binding was evaluated on HEK293 cells over expressing human VSIG10 as well.
(§2) Detection was carried out using Goat Anti mouse-PE secondary Ab.

For assay [6], the target named is human VSIG10 protein endogenously expressed on human cell lines (DAN-G, AsPc1/ASPC-1, DU-145, ZR-75) (human) (UniProt Q8N0Z9). The assay is described as follows: FACS on AsPc1 cells transfected with scrambled (non-target) siRNA; 10 ug/ml mAb vs mIgG1 kappa isotype.
For assay [7] the target is unchanged. The assay can be described thus: FACS on DAN-G cells transfected with scrambled (non-target) siRNA; 10 ug/ml mAb vs mIgG1 kappa isotype.
Assay [8] deals with T1, human VSIG10 flag protein …. The assay can be described thus: FACS titration (8 concentrations) on HEK293 cells over-expressing human VSIG10 Flag; Kd from binding curve. As for the experimental part:
as §1, §2

Assay [9] concerns the target human VSIG10 protein endogenously expressed on human cell lines (DAN-G, AsPc1/ASPC-1, DU-145, ZR-75) (human) (UniProt Q8N0Z9). The assay is described as follows: FACS titration (8 concentrations) on ASPC-1 human cell line endogenously expressing VSIG10, vs mIgG1 kappa isotype; Kd from binding curve.

B1: AB-577 anti-human VSIG10 mouse monoclonal antibody (antibody, V domains shown)
VH: QVQLQQSGPELVRPGASVKMSCKPSGYRFTDYAISWVKQRTGQGLEWVGEIYPGNGNTYFNEKFKDKATLTADRSSNTAYMQLSSLTSEDSAVYFCARGYANYLPWGQGTLVTVSA
VL: DIQMTQSSSSFSVSLGDRVTITCKASEDIYNRLAWYQQKPGNAPRLLISGATGLETGVPSRISGSGSGRDYTLSITSLQTEDVGTYYCQQYWSTPRTFGGGTKLEIK
notes: clonal supernatant was also tested in WB
By Kd is commonly meant the concentration at which binding is half-saturated. The low end stands for a tighter complex, the high end for a looser complex. For B1, the MFI ratio of anti VSIG10 versus isotype control in assay [1] was determined as 3.54 fold; in assay [3] it was 5.2 fold; in assay [6] it was 9.3 fold; in assay [7] it was 12 fold. Moreover, the Kd in assay [2] is 4.62 nM; in [5], 4.67 nM. For the same molecule, the “fold change MFI ratio (VSIG10 Flag cells vs empty vector cells)” value in [4] was determined as 160 fold.

B2: AB-576 anti-human VSIG10 mouse monoclonal antibody (antibody, V domains shown)
VH: EVQLQQSGPELVKPGASVKMSCKASGYTFTDYYMKWVKQSHGKSLEWIGDINPNNGGTTYNQKFKGKATLTVDKSSNTAYMQFNSLTSEDSAVYFCARFRLRAMDYWGQGTSVTVSS
VL: DIVMTQSPSSLTVTAGEKVTMSCKSSQSLLNSGDRKNYLTWYQQRPGLPPKLLIYWASTRESGVPDRFTGSGSGTDFTLTISSVQSEDLAVYFCQNDYIYPLTFGAGTKLELK
notes: as for B1
Take B2: the MFI ratio of anti VSIG10 versus isotype control in [1] is 2.8 fold; in assay [3], 4.4 fold; in assay [6], 9.5 fold; in [7], 9.5 fold. Besides, the Kd is 4.14 nM in [8] and 5.85 nM in [9]. For the same molecule, in assay [4], the “fold change MFI ratio (VSIG10 Flag cells vs empty vector cells)” value turned out to be 219 fold.

The values are drawn from patent US20200270343A1 (COMPUGEN, published 2020).
